According to publication PMC3516504:

Legend:
[1] = target: Calmodulin, Ca2+-bound (Ca2+-CaM) (UniProt P0DP23); assay: NMR titration; TROSY-HSQC of 2H/15N-labelled Ca2+-CaM titrated with unlabelled apo-Lf (titration data not shown); 20 mM Bis-Tris pH 6.8, 150 mM KCl, 4 mM CaCl2, 37 °C
[2] = target: Calmodulin, Ca2+-bound (Ca2+-CaM) (UniProt P0DP23); assay: native gel or EMSA; non-denaturing PAGE band shift; increasing amounts of Lf incubated with a constant amount of Ca2+-CaM; running buffer 0.1 mM CaCl2, samples 0.5 mM CaCl2, no urea
[3] = target: Dansylated calmodulin, Ca2+-bound (Ca2+-dCaM) (UniProt P0DP23); assay: other fluorescence titration; dansyl fluorescence (excitation 340 nm, intensity at 485 nm); ~80 µM Lf titrated into 1.4 µM dansylated CaM; 50 mM Tris pH 7.5, 1 mM CaCl2, 100 mM KCl (also run at 50 and 150 mM KCl); one site model, CaLigator; triplicate

stoichiometry N [1]	stoichiometry N [2]	Kd [3] [nM]	Substance
1	1	3500	Human lactoferrin, iron-free (apo-Lf) (natural protein)
	1	2100	Human lactoferrin, iron-saturated (Fe3+-Lf) (natural protein)
